This is an account of results in publication PMC8868134 (Antibiotics, 2022).

The assay addresses T1, MexB (RND inner membrane transporter) (Pseudomonas aeruginosa, UniProt P52002 1-1046).
T1 sequence: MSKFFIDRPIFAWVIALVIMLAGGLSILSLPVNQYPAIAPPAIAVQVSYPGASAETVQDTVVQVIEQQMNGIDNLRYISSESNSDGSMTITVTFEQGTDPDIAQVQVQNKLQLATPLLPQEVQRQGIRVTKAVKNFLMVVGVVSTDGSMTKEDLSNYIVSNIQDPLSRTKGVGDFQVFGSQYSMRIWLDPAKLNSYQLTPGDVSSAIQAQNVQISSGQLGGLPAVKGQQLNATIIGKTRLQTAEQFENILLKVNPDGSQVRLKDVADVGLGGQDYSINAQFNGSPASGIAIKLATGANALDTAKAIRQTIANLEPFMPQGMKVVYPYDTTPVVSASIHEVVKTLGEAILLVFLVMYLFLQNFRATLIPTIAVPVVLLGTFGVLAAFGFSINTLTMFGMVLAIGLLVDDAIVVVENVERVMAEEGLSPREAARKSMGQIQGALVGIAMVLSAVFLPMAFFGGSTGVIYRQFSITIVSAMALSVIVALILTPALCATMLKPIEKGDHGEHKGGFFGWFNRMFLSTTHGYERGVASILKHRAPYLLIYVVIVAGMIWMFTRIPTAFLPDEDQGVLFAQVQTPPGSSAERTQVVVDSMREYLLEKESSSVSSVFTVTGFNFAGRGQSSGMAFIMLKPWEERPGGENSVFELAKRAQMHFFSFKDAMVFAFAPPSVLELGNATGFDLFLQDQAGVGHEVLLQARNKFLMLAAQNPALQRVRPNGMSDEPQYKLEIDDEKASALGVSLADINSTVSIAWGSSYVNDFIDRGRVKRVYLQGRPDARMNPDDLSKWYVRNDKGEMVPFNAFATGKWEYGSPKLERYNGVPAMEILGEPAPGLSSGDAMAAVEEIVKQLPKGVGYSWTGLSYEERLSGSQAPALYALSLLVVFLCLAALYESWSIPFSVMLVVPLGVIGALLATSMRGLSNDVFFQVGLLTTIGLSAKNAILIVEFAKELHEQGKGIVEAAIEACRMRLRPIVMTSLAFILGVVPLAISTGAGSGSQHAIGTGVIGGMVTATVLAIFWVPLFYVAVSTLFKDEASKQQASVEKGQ
As to the kind of experiment: BLI. On the technique in general: Biolayer interferometry detects binding as a change in optical thickness at a sensor tip.

B1: MexA wild type (periplasmic adaptor protein of MexA-MexB-OprM) (natural protein)
chain: CGKSEAPPPAQTPEVGIVTLEAQTVTLNTELPGRTNAFRIAEVRPQVNGIILKRLFKEGSDVKAGQQLYQIDPATYEADYQSAQANLASTQEQAQRYKLLVADQAVSKQQYADANAAYLQSKAAVEQARINLRYTKVLSPISGRIGRSAVTEGALVTNGQANAMATVQQLDPIYVDVTQPSTALLRLRRELASGQLERAGDNAAKVSLKLEDGSQYPLEGRLEFSEVSVDEGTGSVTIRAVFPNPNNELLPGMFVHAQLQEGVKQKAILAPQQGVTRDLKGQATALVVNAQNKVELRVIKADRVIGDKWLVTEGLNAGDKIITEGLQFVQPGVEVKTVPAKNVASAQKADAAPAKTDSKG
The Kd is the free concentration of one partner at which half of the binding sites on the other are occupied at equilibrium, for simple one-to-one binding. A lower Kd goes with higher affinity. Broadly, the koff is a measure of how fast the partners let go of each other. B1: the Kd came out at 23 µM and the off-rate (koff) was found to be 0.0055 s⁻¹.
